In patent US20220073643A1 (NANJING GENSCRIPT BIOTECH, published 2022) one finds EC50 data, which are given here for 35 molecules.

The chains are these.
B1: 406G3C4 (antibody, V domains shown)
VH: EIQLQQSGPELMKPGASVRISCKASGYSFISYYIYWVKQSHGKGLEWIGYIDPFNGNTNYNQKFKGKATLTVDRSSSTAYIHLNSLTSEDSAVYYCAIVNGYGRGAMDYWGQGTSVTVSS
VL: QIVLTQSPAIMSASPGEKVTMTCSASSSISYMHWYQQKSGTSPKRWIYDTSKLASGVPARFSGSGSGTSYSLTISSMEAEDAATYYCQQWSSNPLTFGDGTKLELK
notes: mouse hybridoma mAb
B2: 392C2F10 (antibody, V domains shown)
VH: EVQLQQSGPELVKPGASMKISCKASGYSFTGYTMNWVKQSLGKNLEWIGLINPFNGGTTYNQKFKGKATLTVDKSSSTAYMELLSLTSDDSAVYYCTRGDYWGQGTTLTVSS
VL: DIVMTQSPSSLTVTAGEKVTMSCKSSQSLLNSGNQKNYLTWYQQKPGQPPKLLIYWASTRESGVPDRFAGSGSGTDFTLTISSVQAEDLAVYYCQSDYSYPTFGAGTKLELK
notes: mouse hybridoma mAb
B3: 423C10E1 (antibody, V domains shown)
VH: DVQLVESGGGLVQPGGSRKLSCVTSGFTFSSFGMHWVRQAPEKGLEWVAFISGGGSPIFYADSVKGRFTVSRDNPKNTLFLQMTGLRSEDTAMYFCARFYFGNSFAYWGQGTLVTVSA
VL: DIVMTQSPSSLTVTAGEKVTMNCRSSQSLFNSGNQKNYLTWYQQKPGQSPKLLIYWASTRESGVPVRFTGSGSGTDFTLTISSVQAEDLAVYYCQTSFNYPLTFGPGTKLELK
notes: mouse hybridoma mAb
B4: 420H7E6 (antibody, V domains shown)
VH: B3 VH with V37I
VL: B3 VL with T5A, S49P, S97G, N99S
notes: mouse hybridoma mAb
B5: 410D9G2 (antibody, V domains shown)
VH: DVQLVESGGGLVQPGGSRKLSCAASGFTFSGFGMHWIRQTPEKGLEWVAYISSGSRPIYYADTVQGRFTISRDNPKNTLFLQMTSLRSEDTAMYFCARFYYGNSFDHWGQGTLVTVSS
VL: DIVMTQSPSFLTVTAGEKVTMSCKSSQSLLNSGNQKNYLTWYQQKPGQPPKLLIYWASTRESGVPDRFTGSGSGTDFTLTISSVQAEDLALYYCQNAYSFPLTFGAGTKLELK
notes: mouse hybridoma mAb
B6: 407H12E6 (antibody, V domains shown)
VH: B5 VH with F29V, G31S, I37V, T40A, R56S, Q65K, M93I, S118A
VL: B5 VL with F10S, A15T, P49S, A86T, L91V, Y93F, A97N, S99F
notes: mouse hybridoma mAb
B7: 423B2B5 (antibody, V domains shown)
VH: B5 VH with G31S, I37V, T40A, R56S, A61S, Q65K, T84S, F99I, S118A
VL: B5 VL with F10S, S22N, L91V, A97D, F100Y
notes: mouse hybridoma mAb
B8: 416F12F3 (antibody, V domains shown)
VH: DVQLVESGGGLVQPGGSRKLSCAASGFTFSSFGMHWVRQAPEKGLEWVAYISSGSSTIYYAHSVKGRFTISRDNPKNTLFLQMTSLGSEDTAMYYCARFYYGNSFAYWGQGTLVTVSA
VL: B5 VL with F10S, M21L, L52M, L91V, S99T, F100Y, K109R
notes: mouse hybridoma mAb
B9: 410H6H3 (antibody, V domains shown)
VH: B8 VH with Q3L, F32S, S56N, H62D, S63T, V64L, G87R, F99I, A106V
VL: B5 VL with F10S, T20I, L52M, T69R, L91V, A97N, S99Y, F100Y, A106T, E111A
notes: mouse hybridoma mAb
B10: 412B6E4 (antibody, V domains shown)
VH: B8 VH with M34V, M93T
VL: B5 VL with F10S, L52M, L91V, S99T, F100Y, K109R
notes: mouse hybridoma mAb
B11: 410A9A9 (antibody, V domains shown)
VH: B8 VH with T57P, H62D, S63T, G87R, Y95F, R98T
VL: B5 VL with F10S, S28T, P46S, L91V, F100Y, L102V, A106S, L110V
notes: mouse hybridoma mAb
B12: 393C2C5 (antibody, V domains shown)
VH: B8 VH with T57P, H62D, S63T, G87R, Y95F, R98T
VL: B5 VL with F10S, S28T, P46S, L91V, F100Y, L102V, A106S, L110V
notes: mouse hybridoma mAb
B13: 413B1C9 (antibody, V domains shown)
VH: B5 VH with G31S, I37V, T40A, R56S, Q65K, S118A
VL: B5 VL with F10S, A15T, T20S, L30F, S32R, N37S, L91V, A97N, S99I, F100Y
notes: mouse hybridoma mAb
B14: 414A5F7 (antibody, V domains shown)
VH: B8 VH with T57P, H62D, S63T, G87R, Y95F, F99I
VL: B5 VL with F10S, T20A, S28T, I54L, L91V, S99Y, F100Y, A106S
notes: mouse hybridoma mAb
B15: 419B5G9 (antibody, V domains shown)
VH: B8 VH with S31T, S53G, S56T, Y59F, H62D, S63T, L86V, G87R, Q110P, A118T
VL: B5 VL with F10S, L52M, L91V, F100Y
notes: mouse hybridoma mAb
B16: 405G8F11 (antibody, V domains shown)
VH: B8 VH with A23V, A24T, T57P, H62D, S63T, T84S, G87R, Y95F
VL: B5 VL with F10S, S22N, P46L, I54M, L91V, Y93F, N96S, Y98F, F100Y
notes: mouse hybridoma mAb
B17: 422F4B6 (antibody, V domains shown)
VH: B8 VH with T28S, T57P, H62D, S63T, T69I, G87R, Y95F, F99I
VL: B5 VL with F10S, S28T, L91V, F100Y, A106S
notes: mouse hybridoma mAb
B18: 411B4G4 (antibody, V domains shown)
VH: B5 VH with M34L, Q65K, S118A
VL: B5 VL with K24R, K36R
notes: mouse hybridoma mAb
B19: 421H4G3 (antibody, V domains shown)
VH: B5 VH with T28S, M34L, Q65K, Y101F, S118T
VL: B5 VL with K24R, K36R, S82N
notes: mouse hybridoma mAb
B20: 414H6G2 (antibody, V domains shown)
VH: B5 VH with P41A, S118A
VL: B5 VL
notes: mouse hybridoma mAb
B21: 411G12G1 (antibody, V domains shown)
VH: B5 VH with T40A, Q65K, S118A
VL: B5 VL with L91V, A97D
notes: mouse hybridoma mAb
B22: 430B3F1 (antibody, V domains shown)
VH: B5 VH with S55G, V116I
VL: B5 VL
notes: mouse hybridoma mAb
B23: 426H6E11 (antibody, V domains shown)
VH: B5 VH
VL: B5 VL with S7F, S28T, K109N
notes: mouse hybridoma mAb
B24: 420F12G8 (antibody, V domains shown)
VH: B5 VH with T28A, Q65K, A97V, S118A
VL: B5 VL with S22T, K24R, S28N, Y55S, A86P, L102F
notes: mouse hybridoma mAb
B25: 422E8F9 (antibody, V domains shown)
VH: B5 VH
VL: B5 VL
notes: mouse hybridoma mAb
B26: 411G3E10 (antibody, V domains shown)
VH: B5 VH with Q65K, S118A
VL: B5 VL with S22N, K24R
notes: mouse hybridoma mAb
B27: 419A5F3 (antibody, V domains shown)
VH: B5 VH with G54D, Q65K, A97G, S118A
VL: B5 VL with M21L, K24R, K36R, L89R, A106T, K113R
notes: mouse hybridoma mAb
B28: 413C12F8 (antibody, V domains shown)
VH: B5 VH with M34V, S52G, Q65K, S118A
VL: B5 VL with S22N, K24R, K45R
notes: mouse hybridoma mAb
B29: 420G10G3 (antibody, V domains shown)
VH: B5 VH with P41A, S118A
VL: B5 VL
notes: mouse hybridoma mAb
B30: 425C6D3 (antibody, V domains shown)
VH: B5 VH
VL: B5 VL
notes: mouse hybridoma mAb
B31: 426D9F6 (antibody, V domains shown)
VH: B5 VH with Q65K, S118A
VL: B5 VL with K36R, I81V
notes: mouse hybridoma mAb
B32: 425B3D5 (antibody, V domains shown)
VH: B5 VH
VL: B5 VL
notes: mouse hybridoma mAb
B33: 411A6E3 (antibody, V domains shown)
VH: B5 VH with G31D, Q65K, A97V, Y101F, S118A
VL: B5 VL with S22T, K24R, S28N, Q35L, Y55S, A86P
notes: mouse hybridoma mAb
B34: 420D5H5 (antibody, V domains shown)
VH: B5 VH with F29L, A61V, Q65E
VL: B5 VL with S82R, S83G
notes: mouse hybridoma mAb
B35: 419A10D4 (antibody, V domains shown)
VH: B5 VH with Q65K, S118A
VL: B5 VL with K36R, I81V
notes: mouse hybridoma mAb

Changes are numbered by the printed parent chain.

The target in this experiment is T1, human Claudin18.2 (human).
T1 construct: also called CLDN18.2
As to the kind of experiment: cell ELISA, Claudin18.2-expressing HEK293T cells. The gist of the method:
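Claudin18.2-expressing HEK293T stable cells (1.5×10⁶ cells/ml in 5% skim milk/PBS blocking buffer) were incubated 1 h at room temperature in plates pre-blocked overnight at 4° C. EC₅₀ was derived by four-parameter curve fit.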
(In general: An ELISA detects its analyte on a solid surface through an enzyme-linked reagent.)
The EC50 is the concentration at which the effect is half-maximal. For the molecule B1, the midpoint of the response, the EC50, lay at 12.6 nM.
The same measure for B2: 350 nM; for B3: 2.46 nM.
For B4 the value was 2.94 nM; for B5, 4.33 nM; for B6, 2.39 nM.
On to B7, for which the EC50 is 12.7 nM.
For B8 the value was 14.7 nM; for B9, 45.5 nM; for B10, 33.1 nM.
B11 had an EC50 of 6.21 nM.
In turn, B12 returned a 50% effective concentration (EC50) of 4.45 nM.
The same measure for B13: 24.6 nM.
B14 gave a concentration giving a half-maximal response (EC50) of 15.5 nM.
For B15 the value was 22.5 nM; for B16, roughly 91.2 nM.
For B17 the value was 2.53 nM; for B18, 2.85 nM.
For B19 the value was 2.47 nM.
For the molecule B20, the EC50 was found to be 12 nM.
For B21 the value was 3.47 nM.
For B22 the value was 2.56 nM.
The same measure for B23: 1.78 nM; for B24: 2.61 nM.
B25 gave an EC50 of 1.88 nM.
For B26 the value was 2.45 nM; for B27, 2.61 nM; for B28, 3.55 nM.
The same measure for B29: 2.39 nM.
As to B30, the EC50 came out at 1.92 nM.
For B31 the value was 2.14 nM; for B32, 2.61 nM.
B33 displayed an EC50 of roughly 2.6 nM.
For B34 the value was 7.03 nM; for B35, 2.33 nM.
